Measured values published in patent US20250145720A1.

Tests used:
[1] = molecular target: human complement component C1q (human) (UniProt P02745); test: FACS, C1q on antibody-opsonized Daudi cells, ranking table
[2] = molecular target: human complement component C1q (human) (UniProt P02745); test: FACS, C1q on antibody-opsonized Daudi cells, average (row shifted one column to the left)
[3] = molecular target: human complement component C1q (human) (UniProt P02745); test: FACS, C1q on antibody-opsonized Daudi cells, Exp. 10
[4] = molecular target: human complement component C1q (human) (UniProt P02745); test: FACS, C1q on antibody-opsonized Daudi cells, Exp. 7
[5] = molecular target: human complement component C1q (human) (UniProt P02745); test: FACS, C1q on antibody-opsonized Daudi cells, Exp. 8
[6] = molecular target: human complement component C1q (human) (UniProt P02745); test: cell-based or functional assay
[7] = molecular target: human complement component C1q (human) (UniProt P02745); test: FACS, C1q on antibody-opsonized Daudi cells, Exp. 9
[8] = molecular target: human complement component C1q (human) (UniProt P02745); test: FACS, C1q on antibody-opsonized Daudi cells, average; no reliable fit, too weak binding
[9] = molecular target: human complement component C1q (human) (UniProt P02745); test: FACS, C1q on antibody-opsonized Daudi cells, ranking table; no reliable fit
[10] = molecular target: human complement component C1q (human) (UniProt P02745); test: FACS, C1q on antibody-opsonized Daudi cells, Exp. 5; no reliable fit, too weak binding
[11] = molecular target: human complement component C1q (human) (UniProt P02745); test: FACS, C1q on antibody-opsonized Daudi cells, Exp. 11; no reliable fit, too weak binding
[12] = molecular target: human complement component C1q (human) (UniProt P02745); test: FACS, C1q on antibody-opsonized Daudi cells, Exp. 6; no reliable fit, too weak binding

Sequence of human complement component C1q (human) (P02745 23-245 limits assumed, chain 1 of 3): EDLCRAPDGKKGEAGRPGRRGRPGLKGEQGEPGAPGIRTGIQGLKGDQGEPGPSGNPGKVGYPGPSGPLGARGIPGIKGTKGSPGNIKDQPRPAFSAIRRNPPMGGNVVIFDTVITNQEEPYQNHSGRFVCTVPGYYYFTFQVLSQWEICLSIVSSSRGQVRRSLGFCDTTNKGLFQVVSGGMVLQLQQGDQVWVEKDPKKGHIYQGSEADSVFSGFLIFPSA
Sequence of human complement component C1q (human) (P02746 28-253 limits assumed, chain 2 of 3, further chain): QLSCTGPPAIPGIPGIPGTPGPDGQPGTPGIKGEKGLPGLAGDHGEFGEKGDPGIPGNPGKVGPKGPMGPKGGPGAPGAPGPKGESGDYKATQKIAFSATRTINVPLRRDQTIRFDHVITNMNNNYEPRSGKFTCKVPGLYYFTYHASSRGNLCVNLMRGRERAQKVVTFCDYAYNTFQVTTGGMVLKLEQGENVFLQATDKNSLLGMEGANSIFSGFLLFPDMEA
Sequence of human complement component C1q (human) (P02747 29-245 limits assumed, chain 3 of 3, further chain): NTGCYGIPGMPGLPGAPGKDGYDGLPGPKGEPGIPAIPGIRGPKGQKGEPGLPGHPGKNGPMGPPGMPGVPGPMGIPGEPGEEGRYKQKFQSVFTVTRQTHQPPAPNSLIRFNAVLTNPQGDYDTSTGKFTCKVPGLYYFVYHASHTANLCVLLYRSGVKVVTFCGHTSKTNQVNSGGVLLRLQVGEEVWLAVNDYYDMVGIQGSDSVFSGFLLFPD

Row | Kd [1] [nM] | Kd [2] [nM] | Kd [3] [nM] | Kd [4] [nM] | Kd [5] [nM] | CH50 (C1q concentration giving 50% lysis), CDC on Raji cells in C1q-depleted serum [6] [µg/mL] | EC50 of CDC on Daudi cells, 20% normal human serum [6] [µg/mL] | EC50 of CDC on Raji cells, 20% normal human serum [6] [µg/mL] | Kd [7] [nM] | Kd [8] [nM] | Kd [9] [nM] | Kd [10] [nM] | Kd [11] [nM] | Kd [12] [nM] | Substance
1 | 3 | 3 | 1.6 | 0.72 | 1.78 | 0.16 | 0.33 | 1.42 | 5.69 |  |  |  |  |  | IgG1-7D8-H433R (antibody)
2 |  |  |  |  |  |  | 1.9 | 11.9 |  | 1270 | 1270 | 2420 | 128 |  | IgG1-7D8-Y436C (antibody)
3 |  |  |  |  |  | > 30 | 4.73 | > 30 |  | 1960 | 1960 |  | 2690 | 1230 | IgG1-7D8-H433D (antibody)
